# Source: patent publication US20150344540A1, “NOVEL GLP-1 RECEPTOR AGONISTS WITH CHOLESTEROL EFFLUX ACTIVITY” (NOVO NORDISK A/S, priority 2012, published 2015)
# Where no end group is shown, it is not given here. [ ]: non-standard residue; d: D form. Aib = CC(C)(N)C(=O)O
# B1: [Aib8,Glu23,Val25,Glu34,Lys35,Aib36]-GLP-1-(7-37)-peptidyl-Glu-Phe-Leu amide (peptide)
# peptide: H[Aib]EGTFTSDVSSYLEGEAVKEFIAWLVEK[Aib]GEFL-NH2
# modifications: N-terminus assumed
# SMILES: CC[C@H](C)[C@H](NC(=O)[C@H](Cc1ccccc1)NC(=O)[C@H](CCC(=O)O)NC(=O)[C@H](CCCCN)NC(=O)[C@@H](NC(=O)[C@H](C)NC(=O)[C@H](CCC(=O)O)NC(=O)CNC(=O)[C@H](CCC(=O)O)NC(=O)[C@H](CC(C)C)NC(=O)[C@H](Cc1ccc(O)cc1)NC(=O)[C@H](CO)NC(=O)[C@H](CO)NC(=O)[C@@H](NC(=O)[C@H](CC(=O)O)NC(=O)[C@H](CO)NC(=O)[C@@H](NC(=O)[C@H](Cc1ccccc1)NC(=O)[C@@H](NC(=O)CNC(=O)[C@H](CCC(=O)O)NC(=O)C(C)(C)NC(=O)[C@@H](N)Cc1c[nH]cn1)[C@@H](C)O)[C@@H](C)O)C(C)C)C(C)C)C(=O)N[C@@H](C)C(=O)N[C@@H](Cc1c[nH]c2ccccc12)C(=O)N[C@@H](CC(C)C)C(=O)N[C@H](C(=O)N[C@@H](CCC(=O)O)C(=O)N[C@@H](CCCCN)C(=O)NC(C)(C)C(=O)NCC(=O)N[C@@H](CCC(=O)O)C(=O)N[C@@H](Cc1ccccc1)C(=O)N[C@@H](CC(C)C)C(N)=O)C(C)C
# B2: [Aib8,Glu23,Val25,Glu34,Aib36,Lys37]-GLP-1-(7-37)-peptidyl-Glu-Phe-Leu amide (peptide)
# peptide: H[Aib]EGTFTSDVSSYLEGEAVKEFIAWLVEG[Aib]KEFL-NH2
# modifications: N-terminus assumed
# SMILES: CC[C@H](C)[C@H](NC(=O)[C@H](Cc1ccccc1)NC(=O)[C@H](CCC(=O)O)NC(=O)[C@H](CCCCN)NC(=O)[C@@H](NC(=O)[C@H](C)NC(=O)[C@H](CCC(=O)O)NC(=O)CNC(=O)[C@H](CCC(=O)O)NC(=O)[C@H](CC(C)C)NC(=O)[C@H](Cc1ccc(O)cc1)NC(=O)[C@H](CO)NC(=O)[C@H](CO)NC(=O)[C@@H](NC(=O)[C@H](CC(=O)O)NC(=O)[C@H](CO)NC(=O)[C@@H](NC(=O)[C@H](Cc1ccccc1)NC(=O)[C@@H](NC(=O)CNC(=O)[C@H](CCC(=O)O)NC(=O)C(C)(C)NC(=O)[C@@H](N)Cc1c[nH]cn1)[C@@H](C)O)[C@@H](C)O)C(C)C)C(C)C)C(=O)N[C@@H](C)C(=O)N[C@@H](Cc1c[nH]c2ccccc12)C(=O)N[C@@H](CC(C)C)C(=O)N[C@H](C(=O)N[C@@H](CCC(=O)O)C(=O)NCC(=O)NC(C)(C)C(=O)N[C@@H](CCCCN)C(=O)N[C@@H](CCC(=O)O)C(=O)N[C@@H](Cc1ccccc1)C(=O)N[C@@H](CC(C)C)C(N)=O)C(C)C
# B3: [Aib8,Glu23,Val25,Glu34,Lys35,Aib36,Lys37]-GLP-1-(7-37)-peptidyl-His-Phe-Leu amide (peptide)
# peptide: H[Aib]EGTFTSDVSSYLEGEAVKEFIAWLVEK[Aib]KHFL-NH2
# modifications: N-terminus assumed
# SMILES: CC[C@H](C)[C@H](NC(=O)[C@H](Cc1ccccc1)NC(=O)[C@H](CCC(=O)O)NC(=O)[C@H](CCCCN)NC(=O)[C@@H](NC(=O)[C@H](C)NC(=O)[C@H](CCC(=O)O)NC(=O)CNC(=O)[C@H](CCC(=O)O)NC(=O)[C@H](CC(C)C)NC(=O)[C@H](Cc1ccc(O)cc1)NC(=O)[C@H](CO)NC(=O)[C@H](CO)NC(=O)[C@@H](NC(=O)[C@H](CC(=O)O)NC(=O)[C@H](CO)NC(=O)[C@@H](NC(=O)[C@H](Cc1ccccc1)NC(=O)[C@@H](NC(=O)CNC(=O)[C@H](CCC(=O)O)NC(=O)C(C)(C)NC(=O)[C@@H](N)Cc1c[nH]cn1)[C@@H](C)O)[C@@H](C)O)C(C)C)C(C)C)C(=O)N[C@@H](C)C(=O)N[C@@H](Cc1c[nH]c2ccccc12)C(=O)N[C@@H](CC(C)C)C(=O)N[C@H](C(=O)N[C@@H](CCC(=O)O)C(=O)N[C@@H](CCCCN)C(=O)NC(C)(C)C(=O)N[C@@H](CCCCN)C(=O)N[C@@H](Cc1c[nH]cn1)C(=O)N[C@@H](Cc1ccccc1)C(=O)N[C@@H](CC(C)C)C(N)=O)C(C)C
# B4: [Aib8,Glu23,Val25,Glu34,Lys35,Leu36,Lys37]-GLP-1-(7-37)-peptidyl-Glu-Leu-Val amide (peptide)
# peptide: H[Aib]EGTFTSDVSSYLEGEAVKEFIAWLVEKLKELV-NH2
# modifications: N-terminus assumed
# SMILES: CC[C@H](C)[C@H](NC(=O)[C@H](Cc1ccccc1)NC(=O)[C@H](CCC(=O)O)NC(=O)[C@H](CCCCN)NC(=O)[C@@H](NC(=O)[C@H](C)NC(=O)[C@H](CCC(=O)O)NC(=O)CNC(=O)[C@H](CCC(=O)O)NC(=O)[C@H](CC(C)C)NC(=O)[C@H](Cc1ccc(O)cc1)NC(=O)[C@H](CO)NC(=O)[C@H](CO)NC(=O)[C@@H](NC(=O)[C@H](CC(=O)O)NC(=O)[C@H](CO)NC(=O)[C@@H](NC(=O)[C@H](Cc1ccccc1)NC(=O)[C@@H](NC(=O)CNC(=O)[C@H](CCC(=O)O)NC(=O)C(C)(C)NC(=O)[C@@H](N)Cc1c[nH]cn1)[C@@H](C)O)[C@@H](C)O)C(C)C)C(C)C)C(=O)N[C@@H](C)C(=O)N[C@@H](Cc1c[nH]c2ccccc12)C(=O)N[C@@H](CC(C)C)C(=O)N[C@H](C(=O)N[C@@H](CCC(=O)O)C(=O)N[C@@H](CCCCN)C(=O)N[C@@H](CC(C)C)C(=O)N[C@@H](CCCCN)C(=O)N[C@@H](CCC(=O)O)C(=O)N[C@@H](CC(C)C)C(=O)N[C@H](C(N)=O)C(C)C)C(C)C
# B5: [Aib8,Trp23,Val25,Glu34,Lys35,Aib36,Lys37]-GLP-1-(7-37)-peptidyl-Glu-Phe-Leu amide (peptide)
# peptide: H[Aib]EGTFTSDVSSYLEGWAVKEFIAWLVEK[Aib]KEFL-NH2
# modifications: N-terminus assumed
# SMILES: CC[C@H](C)[C@H](NC(=O)[C@H](Cc1ccccc1)NC(=O)[C@H](CCC(=O)O)NC(=O)[C@H](CCCCN)NC(=O)[C@@H](NC(=O)[C@H](C)NC(=O)[C@H](Cc1c[nH]c2ccccc12)NC(=O)CNC(=O)[C@H](CCC(=O)O)NC(=O)[C@H](CC(C)C)NC(=O)[C@H](Cc1ccc(O)cc1)NC(=O)[C@H](CO)NC(=O)[C@H](CO)NC(=O)[C@@H](NC(=O)[C@H](CC(=O)O)NC(=O)[C@H](CO)NC(=O)[C@@H](NC(=O)[C@H](Cc1ccccc1)NC(=O)[C@@H](NC(=O)CNC(=O)[C@H](CCC(=O)O)NC(=O)C(C)(C)NC(=O)[C@@H](N)Cc1c[nH]cn1)[C@@H](C)O)[C@@H](C)O)C(C)C)C(C)C)C(=O)N[C@@H](C)C(=O)N[C@@H](Cc1c[nH]c2ccccc12)C(=O)N[C@@H](CC(C)C)C(=O)N[C@H](C(=O)N[C@@H](CCC(=O)O)C(=O)N[C@@H](CCCCN)C(=O)NC(C)(C)C(=O)N[C@@H](CCCCN)C(=O)N[C@@H](CCC(=O)O)C(=O)N[C@@H](Cc1ccccc1)C(=O)N[C@@H](CC(C)C)C(N)=O)C(C)C
# B6: [Aib8,Glu23,Val25,Leu27,Glu34,Lys35,Aib36,Lys37]-GLP-1-(7-37)-peptidyl-Glu-Phe-Leu amide (peptide)
# peptide: H[Aib]EGTFTSDVSSYLEGEAVKLFIAWLVEK[Aib]KEFL-NH2
# modifications: N-terminus assumed
# SMILES: CC[C@H](C)[C@H](NC(=O)[C@H](Cc1ccccc1)NC(=O)[C@H](CC(C)C)NC(=O)[C@H](CCCCN)NC(=O)[C@@H](NC(=O)[C@H](C)NC(=O)[C@H](CCC(=O)O)NC(=O)CNC(=O)[C@H](CCC(=O)O)NC(=O)[C@H](CC(C)C)NC(=O)[C@H](Cc1ccc(O)cc1)NC(=O)[C@H](CO)NC(=O)[C@H](CO)NC(=O)[C@@H](NC(=O)[C@H](CC(=O)O)NC(=O)[C@H](CO)NC(=O)[C@@H](NC(=O)[C@H](Cc1ccccc1)NC(=O)[C@@H](NC(=O)CNC(=O)[C@H](CCC(=O)O)NC(=O)C(C)(C)NC(=O)[C@@H](N)Cc1c[nH]cn1)[C@@H](C)O)[C@@H](C)O)C(C)C)C(C)C)C(=O)N[C@@H](C)C(=O)N[C@@H](Cc1c[nH]c2ccccc12)C(=O)N[C@@H](CC(C)C)C(=O)N[C@H](C(=O)N[C@@H](CCC(=O)O)C(=O)N[C@@H](CCCCN)C(=O)NC(C)(C)C(=O)N[C@@H](CCCCN)C(=O)N[C@@H](CCC(=O)O)C(=O)N[C@@H](Cc1ccccc1)C(=O)N[C@@H](CC(C)C)C(N)=O)C(C)C
# B7: [Aib8,Asp23,Val25,Asp27,Glu34,Lys35,Aib36,Lys37]-GLP-1-(7-37)-peptidyl-Glu-Phe-Leu amide (peptide)
# peptide: H[Aib]EGTFTSDVSSYLEGDAVKDFIAWLVEK[Aib]KEFL-NH2
# modifications: N-terminus assumed
# SMILES: CC[C@H](C)[C@H](NC(=O)[C@H](Cc1ccccc1)NC(=O)[C@H](CC(=O)O)NC(=O)[C@H](CCCCN)NC(=O)[C@@H](NC(=O)[C@H](C)NC(=O)[C@H](CC(=O)O)NC(=O)CNC(=O)[C@H](CCC(=O)O)NC(=O)[C@H](CC(C)C)NC(=O)[C@H](Cc1ccc(O)cc1)NC(=O)[C@H](CO)NC(=O)[C@H](CO)NC(=O)[C@@H](NC(=O)[C@H](CC(=O)O)NC(=O)[C@H](CO)NC(=O)[C@@H](NC(=O)[C@H](Cc1ccccc1)NC(=O)[C@@H](NC(=O)CNC(=O)[C@H](CCC(=O)O)NC(=O)C(C)(C)NC(=O)[C@@H](N)Cc1c[nH]cn1)[C@@H](C)O)[C@@H](C)O)C(C)C)C(C)C)C(=O)N[C@@H](C)C(=O)N[C@@H](Cc1c[nH]c2ccccc12)C(=O)N[C@@H](CC(C)C)C(=O)N[C@H](C(=O)N[C@@H](CCC(=O)O)C(=O)N[C@@H](CCCCN)C(=O)NC(C)(C)C(=O)N[C@@H](CCCCN)C(=O)N[C@@H](CCC(=O)O)C(=O)N[C@@H](Cc1ccccc1)C(=O)N[C@@H](CC(C)C)C(N)=O)C(C)C
# Molecular target: human GLP-1 receptor (human, UniProt P43220)
# Test: cell-based or functional assay
Binder,"CRE luciferase EC50, 0% HSA [pM]","CRE luciferase EC50, 1% HSA [pM]"
B1,39,13
B2,34,13
HAEGTFTNDMTNYLEGEAVKEFIAWLVEKGKEFL-NH2,79,28
B3,205,62
B4,155,82
B5,763,296
B6,269,104
B7,4880,776
